Experimental data from patent publication US20070172470A1, “Phosphatase regulation of nucleic acid transcription” (The Regents of the University of California, priority 2003, published 2007).

Assays:
[1] = test system: PPARγ receptor activity on PPARγ promoter response element; assay: Luciferase reporter assay, ligand-activated PPARγ receptor; type: cell-based, human
From the text: (§1) Gal4-DNA binding domain-SCP1 fusion protein expression plasmids-were cotransfected in HEK293 cells with a Gal 4-TKLuc reporter plasmid and luciferase gene expression quantitated. In all panels, results of triplicate transfections are shown +/− SD. Data is expressed as fold-activation experimental/control). […] The indicated amounts of SCP1 or mutant SCP1 expression plasmids were cotransfected in HEK293 cells along with Gal 4-VP16 expression and Gal 4-TK-Luc reporter plasmids and luciferase activity was quantitated. […] The indicated receptor expression plasmids were cotransfected with their cognate promoter-reporter plasmids with or without SCP1 or mutant SCP1 expression plasmids. Cells were treated or untreated with receptor-specific ligands as described infra. […] The indicated concentrations of SCP1 and mutant SCP1 expression plasmids were cotransfected with LMX1 and E47 expression plasmids and the rat insulin 1 promoter-luciferase reporter gene. Luciferase activity was measured as described.
(§2) Tissue Culture and Transfections: Human 293, COS7 and CV1 cells were grown at 37° C. in DMEM supplemented with 10% normal calf serum (BRL). Sub-confluent cells were transfected in 6 well tissue culture dishes using Effectene (Qiagen) according to the manufacturer's instructions. Reporter and activator plasmids (100 ng each) and Flag SCP1 (80 ng) or its mutant were used per well. […]

[2] = test system: Gal 4-TK-Luc reporter stimulated by Gal 4-VP16; assay: Luciferase reporter assay, Gal 4-VP16 stimulated gene expression; type: cell-based, human; settings: HEK293 cells
From the text: as §1, §2

[3] = test system: P19 mouse embryonic stem cells; assay: Neuronal differentiation of P19 cells; type: cell-based; settings: clonal P19 line, retinoic acid, selective medium
Description: P19 cells, C, differentiated GFP expressing P19 cells; D, differentiated SCP1-expressing P19 cells; F, differentiated REST/NRSF-expressing P19 cells. Numbers of NLC per field are shown. *p=0.001 compared to WT 19 cells; **p=0.008 compared to WT P19 cell using student's t-test.
P19 stably expressing REST/NRSF.
These cell lines were maintained in α-MEM/10%FBS with […] G418. To induce neuronal differentiation, P19 cells were allowed to aggregate in bacterial grade petri-dishes (Fisher) at a seeding density of 1×10^5cells/ml in the presence of 1×10^−6M all-trans retinoic acid. After 3 days of aggregation, cells were dissociated into single cells by 0.05% trypsin-0.53 mM EDTA (Gibco). Trypsin was removed by centrifugation and the cells were plated in 6 cm tissue culture dishes (Nunc). at a density of 1×10^5 cells/cm^2 in Neurobasal medium/N2 supplement (Invitrogen) in the presence or absence of 1 μg/ml fibronectin (Invitrogen). The cells were cultured for 5 days after which average cell numbers/field were determined. Cells were either lysed to prepare total RNA (Rneasy kit, Qiagen) or stained with TuJ1 antibody (Babco).
For immunostaining, cells were fixed for 10 mins with 4% paraformaldehyde. TuJ1 antibody was used at 1:2000 and secondary antibody used was FITC-conjuagated anti-mouse (1:3000).

[4] = type: biochemical; settings: PNθP as substrate
[5] = test system: 28 aa CTD heptad repeat peptide with Ser 5 phosphate or Ser 2 phosphate; assay: CTD phosphopeptide phosphatase assay (malachite green); type: biochemical; settings: 25 μM phosphopeptide, 60 mins at 37° C.
Description: The indicated amounts of. SCP1 were incubated with the phosphopeptide substrate and phosphate released was measured as described infra.
N-terminal biotinylated CTD phosphopeptides, comprised of 4 tandem repeats YSPTSPS and containing phosphoserine at position 2 or position 5, were synthesized (Alpha Diagnostics, San Antonio, Tex.). Phosphatase reaction mixtures (50 μl) containing 50 mM Tris-acetate, pH 5.5, 10 mM MgCl2, 0.5 mM DTT, 10% glycerol, 25 μM of phosphopeptide and wild type or mutant SCP1 were incubated for 60 mins at 37° C. The reactions were quenched by adding 0.5 ml of malachite green (Biomol). Phosphate release was measured at A620 and quantified relative to a phosphate standard curve.

[6] = test system: T3 receptor activity on DR+4 TRE-TK-Luc reporter; assay: Luciferase reporter assay, ligand-activated T3 receptor; type: cell-based, human; settings: 100 nM T3, DR+4 TRE-TK-Luc
From the text: as §1, §2

B1: SCP1: small CTD phosphatase-1, full-length 261 aa human protein, SEQ ID NO:2 (protein, listed as Homo sapiens)
chain: MDSSAVITQISKEEARGPLRGKGDQKSAASQKPRSRGILHSLFCCVCRDDGEALPAHSGAPLLVEENGAIPKTPVQYLLPEAKAQDSDKICVVIDLDETLVHSSFKPVNNADFIIPVEIDGVVHQVYVLKRPHVDEFLQRMGELFECVLFTASLAKYADPVADLLDKWGAFRARLFRESCVFHRGNYVKDLSRLGRDLRRVLILDNSPASYVFHPDNAVPVASWFDNMSDTELHDLLPFFEQLSRVDDVYSVLRQPRPGS
- ligand-activated PPARγ receptor activity [1]: inhibited
- Gal 4-VP16 stimulated luciferase activity [2]: strongly inhibited
- effect on neuronal differentiation [3]: did not affect the extent of neuronal differentiation
- pH optimum for SCP1 phosphatase activity ([4]; GST-fusion): ~5
- divalent metal ion requirement of phosphatase activity ([4]; Ca2+ could not substitute): Mg^2+-dependent
- dephosphorylation of Ser 5 versus Ser 2 phosphopeptide [5]: preferentially dephosphorylates the Ser 5 phosphopeptide
- ligand-activated T3 receptor activity [6]: inhibited
